These results are taken from the supplement of paper PMC5998384.

For data set [1], the system named is HeLa Kyoto. Kind of data set: thermal stability score vs G1/S (z-score of summed log2 fold changes over temperatures); higher = more thermally stable than in G1/S.
Data set [2] deals with HeLa Kyoto. Kind of data set: solubility change mitosis vs G1/S (difference of NP-40 vs SDS log2 ratios) (log2 ratio difference); higher = more soluble in mitosis.
The subject of data set [3] is HeLa Kyoto. Kind of data set: solubility in G1/S (NP-40 vs SDS abundance) (log2 ratio); higher = more soluble. The following applies: cell cycle stage: G1/S.
Data set [4] has as its system HeLa Kyoto. Kind of data set: melting temperature (median over replicates), in situ; higher = more thermally stable.
Where [5] appears, read: cell cycle stage: early G1 (4.5 h after nocodazole release).
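Throughout, for melting temperature (median over replicates), in situ: HeLa Kyoto cells synchronized by double thymidine or nocodazole block, proteins quantified by TMT10plex mass spectrometry, three independent biological replicates.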
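Throughout, for solubility change mitosis vs G1/S (difference of NP-40 vs SDS log2 ratios): synchronized HeLa Kyoto cells (double thymidine block for G1/S, nocodazole release for mitosis), protein amounts in NP-40 versus SDS lysates quantified by mass spectrometry, three biological replicates.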
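Throughout, for solubility in G1/S (NP-40 vs SDS abundance): HeLa Kyoto cells arrested at G1/S by double thymidine block, proteins quantified by TMT10plex mass spectrometry in mild NP-40 versus SDS extracts, three biological replicates.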
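Throughout, for thermal stability score vs G1/S (z-score of summed log2 fold changes over temperatures): synchronized HeLa Kyoto cells, proteins quantified by TMT10plex mass spectrometry, three biological replicates, mitosis taken 0.5 h after nocodazole release, G1/S directly after double thymidine block.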

With “MCGRTSCHLPRDVLTRACAYQDRRGQQRLPEWRDPDKYCPSYNKSPQSNSPVLLSRLHFEKDADSSERIIAPMRWGLVPSWFKESDPSKLQFNTTNCRSDTVMEKRSFKVPLGKGRRCVVLADGFYEWQRCQGTNQRQPYFIYFPQIKTEKSGSIGAADSPENWEKVWDNWRLLTMAGIFDCWEPPEGGDVLYSYTIITVDSCKGLSDIHHRMPAILDGEEAVSKWLDFGEVSTQEALKLIHPTENITFHAVSSVVNNSRNNTPECLAPVDLVVKKELRASGSSQRMLQWLATKSPKKEDSKTPQKEESDVPQWSSQFLQKSPLPTKRGTAGLLEQWLKREKEEEPVAKRPYSQ [HMCES]”, the thermal stability score with HeLa Kyoto [1] (setting [5]) is 1.11; in the data set with HeLa Kyoto [1] (cell cycle stage: mitosis) it was 1.51. For the same sequence, the “solubility change mitosis (log2)” value in the data set with HeLa Kyoto [2] is -0.0383. Besides, the “solubility in G1/S (log2)” value with HeLa Kyoto [3] came out at 0.0685. Also, the melting temperature worked out at 48.6 °C in the data set on HeLa Kyoto [4] (cell cycle stage: G1/S) and 48.4 °C with HeLa Kyoto [4] (cell cycle stage: mitosis).
For “MCGSALAFFTAAFVCLQNDRRGPASFLWAAWVFSLVLGLGQGEDNRCASSNAASCARCLALGPECGWCVQEDFISGGSRSERCDIVSNLISKGCSVDSIEYPSVHVIIPTENEINTQVTPGEVSIQLRPGAEANFMLKVHPLKKYPVDLYYLVDVSASMHNNIEKLNSVGNDLSRKMAFFSRDFRLGFGSYVDKTVSPYISIHPERIHNQCSDYNLDCMPPHGYIHVLSLTENITEFEKAVHRQKISGNIDTPEGGFDAMLQAAVCESHIGWRKEAKRLLLVMTDQTSHLALDSKLAGIVVPNDGNCHLKNNVYVKSTTMEHPSLGQLSEKLIDNNINVIFAVQGKQFHWYKDLLPLLPGTIAGEIESKAANLNNLVVEAYQKLISEVKVQVENQVQGIYFNITAICPDGSRKPGMEGCRNVTSNDEVLFNVTVTMKKCDVTGGKNYAIIKPIGFNETAKIHIHRNCSCQCEDNRGPKGKCVDETFLDSKCFQCDENKCHFDEDQFSSESCKSHKDQPVCSGRGVCVCGKCSCHKIKLGKVYGKYCEKDDFSCPYHHGNLCAGHGECEAGRCQCFSGWEGDRCQCPSAAAQHCVNSKGQVCSGRGTCVCGRCECTDPRSIGRFCEHCPTCYTACKENWNCMQCLHPHNLSQAILDQCKTSCALMEQQHYVDQTSECFSSPSYLRIFFIIFIVTFLIGLLKVLIIRQVILQWNSNKIKSSSDYRVSASKKDKLILQSVCTRAVTYRREKPEEIKMDISKLNAHETFRCNF [ITGB8]”, the thermal stability score is -0.935 with HeLa Kyoto [1] (setting [5]) and -1.88 with HeLa Kyoto [1] (cell cycle stage: mitosis). In addition, the “solubility change mitosis (log2)” value with HeLa Kyoto [2] was -0.0048. Moreover, in the data set on HeLa Kyoto [3], the “solubility in G1/S (log2)” value is -0.0596. In addition, the melting temperature is 53.9 °C in the data set on HeLa Kyoto [4] (cell cycle stage: G1/S) and 53.8 °C in the data set on HeLa Kyoto [4] (cell cycle stage: mitosis).
On to “MCSLASGATGGRGAVENEEDLPELSDSGDEAAWEDEDDADLPHGKQQTPCLFCNRLFTSAEETFSHCKSEHQFNIDSMVHKHGLEFYGYIKLINFIRLKNPTVEYMNSIYNPVPWEKEEYLKPVLEDDLLLQFDVEDLYEPVSVPFSYPNGLSENTSVVEKLKHMEARALSAEAALARAREDLQKMKQFAQDFVMHTDVRTCSSSTSVIADLQEDEDGVYFSSYGHYGIHEEMLKDKIRTESYRDFIYQNPHIFKDKVVLDVGCGTGILSMFAAKAGAKKVLGVDQSEILYQAMDIIRLNKLEDTITLIKGKIEEVHLPVEKVDVIISEWMGYFLLFESMLDSVLYAKNKYLAKGGSVYPDICTISLVAVSDVNKHADRIAFWDDVYGFKMSCMKKAVIPEAVVEVLDPKTLISEPCGIKHIDCHTTSISDLEFSSDFTLKITRTSMCTAIAGYFDIYFEKNCHNRVVFSTGPQSTKTHWKQTVFLLEKPFSVKAGEALKGKVTVHKNKKDPRSLTVTLTLNNSTQTYGLQ [PRMT3]”, for which the figures for the thermal stability score in the data set with HeLa Kyoto [1] (setting [5]) and in the data set with HeLa Kyoto [1] (cell cycle stage: mitosis) were 0.9 and 1.13, respectively. Also, the “solubility change mitosis (log2)” value in the data set with HeLa Kyoto [2] was -0.212. In addition, in the data set with HeLa Kyoto [3], the “solubility in G1/S (log2)” value is -0.146. Further, the values for the melting temperature in the data set with HeLa Kyoto [4] (cell cycle stage: G1/S) and with HeLa Kyoto [4] (cell cycle stage: mitosis) were 50.9 °C and 51 °C, respectively.
For “MDALEDYVWPRATSELILLPVTGLECVGDRLLAGEGPDVLVYSLDFGGHLRMIKRVQNLLGHYLIHGFRVRPEPNGDLDLEAMVAVFGSKGLRVVKISWGQGHFWELWRSGLWNMSDWIWDARWLEGNIALALGHNSVVLYDPVVGCILQEVPCTDRCTLSSACLIGDAWKELTIVAGAVSNQLLVWYPATALADNKPVAPDRRISGHVGIIFSMSYLESKGLLATASEDRSVRIWKVGDLRVPGGRVQNIGHCFGHSARVWQVKLLENYLISAGEDCVCLVWSHEGEILQAFRGHQGRGIRAIAAHERQAWVITGGDDSGIRLWHLVGRGYRGLGVSALCFKSRSRPGTLKAVTLAGSWRLLAVTDTGALYLYDVEVKCWEQLLEDKHFQSYCLLEAAPGPEGFGLCAMANGEGRVKVVPINTPTAAVDQTLFPGKVHSLSWALRGYEELLLLASGPGGVVACLEISAAPSGKAIFVKERCRYLLPPSKQRWHTCSAFLPPGDFLVCGDRRGSVLLFPSRPGLLKDPGVGGKARAGAGAPVVGSGSSGGGNAFTGLGPVSTLPSLHGKQGVTSVTCHGGYVYTTGRDGAYYQLFVRDGQLQPVLRQKSCRGMNWLAGLRIVPDGSMVILGFHANEFVVWNPRSHEKLHIVNCGGGHRSWAFSDTEAAMAFAYLKDGDVMLYRALGGCTRPHVILREGLHGREITCVKRVGTITLGPEYGVPSFMQPDDLEPGSEGPDLTDIVITCSEDTTVCVLALPTTTGSAHALTAVCNHISSVRAVAVWGIGTPGGPQDPQPGLTAHVVSAGGRAEMHCFSIMVTPDPSTPSRLACHVMHLSSHRLDEYWDRQRNRHRMVKVDPETRYMSLAVCELDQPGLGPLVAAACSDGAVRLFLLQDSGRILQLLAETFHHKRCVLKVHSFTHEAPNQRRRLLLCSAATDGSLAFWDLTTMLDHDSTVLEPPVDPGLPYRLGTPSLTLQAHSCGINSLHTLPTREGHHLVASGSEDGSLHVFVLAVEMLQLEEAVGEAGLVPQLRVLEEYSVPCAHAAHVTGLKILSPSIMVSASIDQRLTFWRLGHGEPTFMNSTVFHVPDVADMDCWPVSPEFGHRCALGGQGLEVYNWYD [WDR6]”, the thermal stability score is -0.588 in the data set on HeLa Kyoto [1] (setting [5]) and 0.0649 with HeLa Kyoto [1] (cell cycle stage: mitosis). The “solubility change mitosis (log2)” value in the data set on HeLa Kyoto [2] was -0.023. In addition, the “solubility in G1/S (log2)” value in the data set on HeLa Kyoto [3] is -0.611. Besides, the results for the melting temperature in the data set with HeLa Kyoto [4] (cell cycle stage: G1/S) and in the data set with HeLa Kyoto [4] (cell cycle stage: mitosis) were 51.5 °C and 51.6 °C, respectively.
